Test results from patent publication US11911481B2, “Compositions and methods for treating RSV-infections” (UNITED STATES GOVERNMENT AS REPRESENTED BY THE DEPARTMENT …, priority 2018, dated 2024).

Assays:
[1] = HR2D peptide release from the outer chitosan NP-layer in PBS and in 10% FBS; assay type: physicochemical; conditions: within 10 minutes
Procedure: FIGS. 3A-C show DNA-encapsulation and HR2D-release.
The NPs were characterized for the plasmid encapsulation and integrity following synthesis, HR2D peptide release from the outer chitosan NP-layer in PBS and in 10% FBS and their cell (FIG. 3). First, chitosan-DNA nanoparticles were prepared by a complex coacervation method. In order to determine the optimal formulation, nanoparticles of different Chitosan/pDNA ratios were prepared and characterized. The binding of pDNA to chitosan for the formulations prepared herein was analyzed by gel electrophoresis.
Chitosan/pDNA NPs were coated with a liposomal layer after co-extrusion of chitosan-pDNA NPs with pre-formed liposomes. This layer ensures the stability and integrity of the plasmid DNA and the endosomal escape and also allows for functionalization of the nanoparticle surface. The liposomal layer was then coated with another layer of chitosan complexed with fusion inhibitor HR2-D peptide.

RSV rA2-L19F = assay: Inhibition of RSV rA2-L19F fusion by HR2D peptide in A549 cells; assay type: cell-based; conditions: A549 cells pre-treated with 5 or 20 μM 30 min before infection, MOI 0.1, 24 hours
Procedure: Fluorescence microscopy images of A549 cells pre-treated with 5 or 20 μM HR2D peptide 30 min before RFP-RSV-Ln19-A2 infection MOI 0.1 for 24 hours. RFP intensity quantified with ImageJ.
RFP intensity was quantified with ImageJ.

In the case of “DACISQVNECINQSLAFICKSDELLCNT [HR2D peptide]”, the “peptide released from the outer layer” value [1] is reported as 90% and the RFP expression (RSV rA2-L19F) is reported as “significantly lower”.
